Values belong to the molecule of their own block, whether it stands above or below them.
Tests used:
[1] = biological target: C81R mutant PCNA protein from S. cerevisiae (S. cerevisiae) (UniProt P15873); experiment: crystal structure
[2] = biological target: the molecule itself; experiment: native gel or EMSA
[3] = biological target: MutSα (Msh2-Msh6) from S. cerevisiae (S. cerevisiae, UniProt P25847 1-964; Q03834 1-1242); experiment: ELISA
[4] = biological target: the molecule itself; experiment: crystal structure

MutSα (Msh2-Msh6) from S. cerevisiae, sequence (P25847 whole entry, chain 1 of 2): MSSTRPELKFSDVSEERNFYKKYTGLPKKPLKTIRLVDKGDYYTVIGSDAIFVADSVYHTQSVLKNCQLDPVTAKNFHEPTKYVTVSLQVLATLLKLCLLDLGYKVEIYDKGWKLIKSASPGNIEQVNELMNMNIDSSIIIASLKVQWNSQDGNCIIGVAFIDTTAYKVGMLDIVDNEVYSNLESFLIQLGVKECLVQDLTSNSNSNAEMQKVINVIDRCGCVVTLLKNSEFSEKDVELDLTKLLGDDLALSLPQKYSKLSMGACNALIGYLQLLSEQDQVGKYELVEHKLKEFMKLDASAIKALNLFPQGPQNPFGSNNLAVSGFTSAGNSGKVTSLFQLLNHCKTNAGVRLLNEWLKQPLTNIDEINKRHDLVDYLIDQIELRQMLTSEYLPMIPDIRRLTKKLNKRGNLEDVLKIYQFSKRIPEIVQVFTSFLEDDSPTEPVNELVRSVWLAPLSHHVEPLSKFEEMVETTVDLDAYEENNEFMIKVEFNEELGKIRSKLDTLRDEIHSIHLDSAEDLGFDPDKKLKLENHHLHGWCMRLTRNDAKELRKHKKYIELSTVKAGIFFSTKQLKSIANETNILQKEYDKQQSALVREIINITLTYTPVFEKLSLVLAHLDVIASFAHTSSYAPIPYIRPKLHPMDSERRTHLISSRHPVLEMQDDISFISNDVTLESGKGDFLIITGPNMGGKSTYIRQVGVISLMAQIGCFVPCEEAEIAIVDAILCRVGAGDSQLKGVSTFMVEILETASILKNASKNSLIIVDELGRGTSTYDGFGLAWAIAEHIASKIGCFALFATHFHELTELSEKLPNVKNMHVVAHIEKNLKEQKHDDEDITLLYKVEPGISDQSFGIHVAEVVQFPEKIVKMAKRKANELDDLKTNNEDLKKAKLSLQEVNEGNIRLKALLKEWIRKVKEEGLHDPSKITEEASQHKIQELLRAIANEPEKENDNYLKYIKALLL
MutSα (Msh2-Msh6) from S. cerevisiae, sequence (Q03834 whole entry, chain 2 of 2): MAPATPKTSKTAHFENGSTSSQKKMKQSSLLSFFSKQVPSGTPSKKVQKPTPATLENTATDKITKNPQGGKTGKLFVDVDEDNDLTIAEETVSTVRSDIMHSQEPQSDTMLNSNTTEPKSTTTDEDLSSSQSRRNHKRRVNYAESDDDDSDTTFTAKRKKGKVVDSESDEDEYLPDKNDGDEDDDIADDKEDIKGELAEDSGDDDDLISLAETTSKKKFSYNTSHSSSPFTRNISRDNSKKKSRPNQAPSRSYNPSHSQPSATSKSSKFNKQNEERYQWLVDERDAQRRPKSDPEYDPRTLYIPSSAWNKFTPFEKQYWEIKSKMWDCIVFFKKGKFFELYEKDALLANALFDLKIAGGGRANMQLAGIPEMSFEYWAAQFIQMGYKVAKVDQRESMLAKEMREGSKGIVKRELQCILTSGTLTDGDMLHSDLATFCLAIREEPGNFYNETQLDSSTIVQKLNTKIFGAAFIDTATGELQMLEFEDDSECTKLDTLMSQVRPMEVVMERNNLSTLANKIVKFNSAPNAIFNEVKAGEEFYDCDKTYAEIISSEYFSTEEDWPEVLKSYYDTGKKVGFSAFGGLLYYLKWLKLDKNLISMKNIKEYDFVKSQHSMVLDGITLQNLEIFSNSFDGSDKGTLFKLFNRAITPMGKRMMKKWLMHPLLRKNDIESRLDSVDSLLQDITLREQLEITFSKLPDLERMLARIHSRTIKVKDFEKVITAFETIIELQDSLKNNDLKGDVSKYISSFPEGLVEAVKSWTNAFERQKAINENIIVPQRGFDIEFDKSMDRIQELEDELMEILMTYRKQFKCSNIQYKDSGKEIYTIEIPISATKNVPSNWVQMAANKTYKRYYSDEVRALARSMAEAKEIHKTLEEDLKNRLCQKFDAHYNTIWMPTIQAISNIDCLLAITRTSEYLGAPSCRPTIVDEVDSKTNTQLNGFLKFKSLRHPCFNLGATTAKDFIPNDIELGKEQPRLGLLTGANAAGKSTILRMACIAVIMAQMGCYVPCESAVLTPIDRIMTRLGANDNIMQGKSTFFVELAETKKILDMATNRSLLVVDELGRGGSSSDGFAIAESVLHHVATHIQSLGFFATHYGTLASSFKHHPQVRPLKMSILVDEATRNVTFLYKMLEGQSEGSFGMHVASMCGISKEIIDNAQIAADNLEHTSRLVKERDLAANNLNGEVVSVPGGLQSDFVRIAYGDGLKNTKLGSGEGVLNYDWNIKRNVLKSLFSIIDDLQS

- stoichiometry N [1]: 3
Molecule: C81R mutant PCNA protein from S. cerevisiae (from UniProt P15873 1-258) (natural protein)

B1: wild-type PCNA protein (proliferating cell nuclear antigen) from S. cerevisiae (natural protein)
chain: MLEAKFEEASLFKRIIDGFKDCVQLVNFQCKEDGIIAQAVDDSRVLLVSLEIGVEAFQEYRCDHPVTLGMDLTSLSKILRCGNNTDTLTLIADNTPDSIILLFEDTKKDRIAEYSLKLMDIDADFLKIEELQYDSTLSLPSSEFSKIVRDLSQLSDSINIMITKETIKFVADGDIGSGSVIIKPFVDMEHPETSIKLEMDQPVDLTFGAKYLLDIIKGSSLSDRVGIRLSSEAPALFQFDLKSGFLQFFLAPKFNDEE
- stoichiometry N [2]: 3

- binding result [3]: binds
B2: C22Y mutant PCNA protein from S. cerevisiae (natural protein)
chain: MLEAKFEEASLFKRIIDGFKDYVQLVNFQCKEDGIIAQAVDDSRVLLVSLEIGVEAFQEYRCDHPVTLGMDLTSLSKILRCGNNTDTLTLIADNTPDSIILLFEDTKKDRIAEYSLKLMDIDADFLKIEELQYDSTLSLPSSEFSKIVRDLSQLSDSINIMITKETIKFVADGDIGSGSVIIKPFVDMEHPETSIKLEMDQPVDLTFGAKYLLDIIKGSSLSDRVGIRLSSEAPALFQFDLKSGFLQFFLAPKFNDEE
- stoichiometry N [4]: 3

- binding result [3]: binds
B3: C81R mutant PCNA protein from S. cerevisiae (natural protein)
chain: MLEAKFEEASLFKRIIDGFKDCVQLVNFQCKEDGIIAQAVDDSRVLLVSLEIGVEAFQEYRCDHPVTLGMDLTSLSKILRRGNNTDTLTLIADNTPDSIILLFEDTKKDRIAEYSLKLMDIDADFLKIEELQYDSTLSLPSSEFSKIVRDLSQLSDSINIMITKETIKFVADGDIGSGSVIIKPFVDMEHPETSIKLEMDQPVDLTFGAKYLLDIIKGSSLSDRVGIRLSSEAPALFQFDLKSGFLQFFLAPKFNDEE

— paper PMC3845532 (Biochemistry, 2013)
